Measured values published in publication PMC6198510 (2018).

Legend:
[1] = target: JK18; assay: FP
[2] = target: JK16; assay: FP
[3] = target: JK18; assay: FP; direct titration
[4] = target: JK16; assay: FP; direct titration

B1: c-Jun N-terminal kinase 3 (enzyme)
chain: MSLHFLYYCSEPTLDVKIAFCQGFDKQVDVSYIAKHYNMSKSKVDNQFYSVEVGDSTFTVLKRYQNLKPIGSGAQGIVCAAYDAVLDRNVAIKKLSRPFQNQTHAKRAYRELVLMKCVNHKNIISLLNVFTPQKTLEEFQDVYLVMELMDANLCQVIQMELDHERMSYLLYQMLCGIKHLHSAGIIHRDLKPSNIVVKSDCTLKILDFGLARTAGTSFMMTPYVVTRYYRAPEVILGMGYKENVDIWSVGCIMGEMVRHKILFPGRDYIDQWNKVIEQLGTPCPEFMKKLQPTVRNYVENRPKYAGLTFPKLFPDSLFPADSEHNKLKASQARDLLSKMLVIDPAKRISVDDALQHPYINVWYDPAEVEAPPPQIYDKQLDEREHTIEEWKELIYKEVMNSEEKTKNGVVKGQPSPSGAAVNSSESLPPSSSVNDISSMSTDQTLASDTDSSLEASAGPLGCCR
[1]
  Kd: 4.1 µM
[2]
  Kd: 6.7 µM
[3]
  Kd: 4.1 µM
[4]
  Kd: 6.7 µM
